Measurements taken from a protein production outcome set (Wang et al. 2014).

Test: label from the status in PepcDB records
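Note: failed if final PepcDB status was selected cloned or expressed and not failed if soluble or beyond.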

MKLDEIARLAGVSRTTASYVINGKAKQYRVSDKTVEKVMAVVREHNYHPNAVAAGLRAGRTRSIGLVIPDLENTSYTRIANYLERQARQRGYQLLIACSEDQPDNEMRCIEHLLQRQVDAIIVSTSLPPEHPFYQRWANDPFPIVALDRALDREHFTSVVGADQDDAEMLAEELRKFPAETVLYLGALPELSVSFLREQGFRTAWKDDPREVHFLYANSYEREAAAQLFEKWLETHPMPQALFTTSFALLQGVMDVTLRRDGKLPSDLAIATFG
protein production: failed

MRVVALVPGGIGDQILFFPTLDDLKRYYPNAQLDVVVEPRSKAAYRVSKSVNDILTFDYKDRNSLADWGNLVGTIRDREYDVVITVGQSWLVGLFLWLTGIPTRIGYQGKGRSFLTKTVPFKPSQYAAAVYHDLLAPIGITTPTPELEHHHHHH
protein production: failed

MNRNKIAALIFAVSTVCVVSAHSENAYATEHKNSNQLEENNQTRSVKKGQVINVSTNLRIRKSPNTSSDVIGYLTNGEIFNIDGKEGSWYKINANGKVGYIHGDYVKEVTGNSNSSSNNSGSNSNLDTSLAGKKGTVVNVSTSLRVRQSPSTSSSVVGSLRGGQTFEIKGKSGSWYYINANGLTGYIHGDYVQVGENSSNNGGQSSGNNGQSSENNSGMDTSLAGKTGKVVNVSTSLRIRQSPSTSSSVVGSLSAGQTFKINGKNGAWYNIDAQGTKGHVHGDYVQVLSGNESSNSGSNNNQSGSQNNNLDESYNGKAGKVVNVTTNLRLRSQPSTSSSVLAYLLPNERFTLQGKTSSGWFKVNYNGKIGYLHEDYVKIVSSDEGANGNTGGSTGGGQVNQSKYEQVLSIMKSQIGSPYIYGGAGETLTSSLLSSLRRTFPDHAARGFYDIPSNYLNGNYRAFDCSGLMQWSFRQAGISLGRTTWDQINNGYEVSPSNAKPGDLLFFSNLGHVGMYIGNGQWIEAPNKGKFVSITSVPWSKIGRARRVL
protein production: failed

MKIVIAPDSYKESLSALEVATAIEQGFREIWPDADYLKLPLADGGEGTVEAMVEATAGRIVHVEVTGPLGHRVNAFYGLSGDARSAFIEMAAASGLEQVPPAQRDPLKTTSWGTGELIRHALDAGVEHIIIGIGGSATNDGGAGMVQALGARLRDAQGNDIAQGGIGLETLASIDISGLDKRLSACHIEVACDVTNPLTGKEGASAVFGPQKGATPEMIERLDTALTRYAHLIARDLHVDVLDLAGGGAAGGMGAALYAFCGAQLRRGIEIVTDALHLEACLADADLVITGEGRIDSQTIHGKVPIGVANIAKRYNKPVIGIAGSLTADVSVVHEHGLDAVFSVIYTICTLEDALKNASENVRMTARNVAATLKAGQQLR
protein production: not failed

MNRNRQLSDPSRFSGMAAGFFMATLGAVLFSGKAIVVKFTYRYGIDAVTLIAFRMLFAMPFFAAVAWWQARRAARGELPVLSWRERGQLCALGLLGYYLSSFLDFLGLRHITAGLERLILFLSPSLVVLLSAWWLKRPVTRRQWGAMLLSYVGVALVLSHDLSQSGAGADVLTGSFFVFCSALSYSVYLICSGELVERVGATRLVAYAMLVSCVASLIQFFLIHPASVLVQPAAVYGYSVIHATVNTVLPVFMLMWAVALVGAPTASLLGMVGPVSVLFLAAWFLDEPITVWQLAGTALVLAGVFVLAGRRRPARP
protein production: failed

MSSFLRPAVSGQDPFTTGNYRAISSHLAITPPVSVVIPAMNEAENLPYVFKSLPDWIHEVVLVDGNSTDGTVEVARELWPDVKVVEQRGKGKGDALITGFEACTGDIIVMVDADGSADGQEIVSYVSALVSGADFAKGSRFANGGGTSDMTPIRKLGNRVLCAAVNAKFGARYTDLCYGYNAFWRHCLDQIDLDCTGFEVETLMNIRVVKAGLKVQEIPSHEYLRIHGASNLRAVRDGLRVLKVILKERSNRRALRSRPHAMQLNSGQGEVSLEHHHHHH
protein production: not failed

MQVEQRTLNTAAHPFQITAYWLDQISDFETAVDYPIMIICPGGGFTYHSGREEAPIATRMMAAGMHTVVLNYQLIVGDQSVYPWALQQLGATIDWITTQASAHHVDCQRIILAGFSAGGHVVATYNGVATQPELRTRYHLDHYQGQHAAIILGYPVIDLTAGFPTTSAARNQITTDARLWAAQRLVTPASKPAFVWQTATDESVPPINSLKYVQAMLQHQVATAYHLFGSGIHGLALANHVTQKPGKDKYLNDQAAIWPQLALRWLQEQGLLAGNYLEHHHHHH
protein production: not failed

MLDRLRSIPVRGLFARLFSWLFFGLAFALVAATIVDVFELLNSDEPLMQAMINGVNGSIIALAVYELAMVIRSEYSGRSETHDIVTMMRRTLPRFISTVCVAMSLEGLIMIIKYSQLDLAGNLVYPVAIIASTALLLAALGVFLKMAPKEIGANGCDESCTTK
protein production: failed

MSEMAGDSSTSEDKIHKPNRERNVSGELDVFEATRYFSDFNEPTTIEYSRIQIQKQSIVTENRQKRVHPETEEHLPKPRVVVIKPQKKEMTRGGGKKLTSFLNSLLRSAGLKKKSKSAPEVETPRVERMRRKSCVVTTHAADASPLTNAGAWSLNARRRSFDEKDLKKSDQKLNIRFCESLYSDQRVETKDPNAGDKNDVIGGCESDSSSESDLFELDLFAKSNP
protein production: failed

MVPSTFSRLKAARCLPVVLAALIFVGCGTHTPDQSTAYMQGTAQADSAFYLQQMQQSSDDTRINWQLLAIRALVKEGKTGQAVELFNQLPQELNDSQRREKTLLAVEIKLAQKDFAGAQNLLAKITPADLEQNQQARYWQAKIDASQGRPSIDLLRALIAQEPLLGAKEKQQNIDATWQALSSMTQEQANTLVINADENILQGWLDLQRVWFDNRNDPDMMKAGIADWQKRYPNNPGAKMLPTQLVNVKAFKPASTNKIALLLPLNGQAAVFGRTIQQGFEAAKNIGTQPVAAQVAAAPAADVAEQPQPQTADGVASPAQASVSDLTGDQPAAQPVPVSAPATSTAAVSAPANPSAELKIYDTSSQPLSQILSQVQQDGASIVVGPLLKNNVEELLKSNTPLNVLALNQPENIENRVNICYFALSPEDEARDAARHIRDQGKQAPLVLIPRSSLGDRVANAFAQEWQKLGGGTVLQQKFGSTSELRAGVNGGSGIALTGTPITPRATTDSGMTTNNPTLQTTPTDDQFTNNGGRVDAVYIVATPGEIAFIKPMIAMRNGSQSGATLYASSRSAQGTAGPDFRLEMEGLQYSEIPMLAGGNLPLMQQALSAVNNDYSLARMYAMGVDAWSLANHFSQMRQVQGFEINGNTGSLTANPDCVINRKLSWLQYQQGQVVPAS
protein production: not failed

MDELIKILHAQFGHASFRPGQREVVEDVLAGRDVLAMLPTGSGKSLCYQLPAYLLPGSVLVVSPLVSLMEDQVEQLRRRGEKRVIAFHSLLDAEEKWQALASLPDFRFIYASPEMLQSAKFLTALGRTRISLFVVDEAHCISQWGYDFRPDFLKLGTVRRALGSPPCLALTATAPPEVRDDIVRTLGMERACLHIYSVDRPNIALKVEYCLSAEEKAARLVEYARQLEGPGIVYFSSRQWAEEMARRLEQSGAGRVAYYHAGMDGEQRLLVQQQFLYGQLDIVCCTSAFGMGVNKENVRFVLHFHMPAQLEAYVQEIGRAGRDGAPSLAVLFYADGDRAIAQAVAEAELPDPHELREWCWRLPDNVAVEQWNAAIEASGFTEIQKRLLTYLLEWGQTAPPGRLTAEVKEQLYERMAAAIETRRRWKRKKLHEMDDWVHTSSCRRAMIVRAFGEELMDKPGDCCDCCGLRLDAYMRDTRRLAAAPIRHWREELWQMFFSRGRQDETAK
protein production: failed

MSELNLSPDKLTVLLMGGSFGAGNIKETLDELLDTDRDFQILVITGKNESLKEKIEKKLMSRYHDKNVCVLGYTDKMNDILASIDVLVSKPGGLTTTEALLKDVPMIVPYYIPGQEEENLDFLSNCGAALRTTKKYNLSILLKVLIDDPSRLEMLKRNIKSIRKSNSAQNIANLILNIISGLEHHHHHH
protein production: failed

MIAISSLLGLVVRSFYFLLPDYRAADTWFHASKVKMIISTGTVYFSHVPGYFSAQIIKYPPGYHALIALLSGFKGENIIYGMNSLRIFEILYLPALAYLVGREIRREIGIFAALLTNFSALYYYFVQYALLPAFTNYMIFLLSVYFLEVAMRDRGIKISIMLGITSGIMAVVHPYQYILFQATAFFTTILSKNRKVFLTQLILSASVFLVFTPFSTEYAVKGILMNPRFSNKDNPNFLISILRYSFVDNGQILFGLSLILALILSLMRGGSIEKGLSLSFLLIIFMMLDKTYLNIRIPYLSAVWNSERAFMLTTPLIPILEGIGLNYIFKVKKELAAIFLVVGMMISYPYLRIEHLASESSYLLDPEVVDFIKEVSRIAGNETVMTACEFDSGRWIPILTETPIVCYSKNISEARYLYVDTRGAGEIEVYPINIVNFLDRRVVLFRDGLWLLDLNKHGKPTGDVLSYYHTNGTISYIKDTKWFVYGWVNKNYATMKLRLKGFPYAIMIVNTSSILFSTSESFDRIEIRISGKKGRALEIYLDGEFIKRYEFKTEYGDERIVLKVRVDPGMHYLILYSPNTTYKIPIGVKEIMLKREGP
protein production: failed
